Test results: patent US20050202010A1, “Method of treatment and bioassay involving macrophage migration inhibitory factor (MIF) as cardiac-derived myocardial depressant factor” (priority 2003, published 2005)
Values joined by “and” are separate entries in the source; they are usually repeats but may differ in a detail not shown here. Identical values can stand only once.

Columns and labels:
[1] = tested on: isolated wild type hearts; experiment: Langendorff perfusion with rMIF, wild type hearts; design: species or system mouse; settings: WT + rMIF 20 ng/ml
Experimental: (§1) Ex vivo cardiac function determination by Langendorff Mouse heart function was determined using the Langendorff assay procedure. Briefly, 200 Units heparin sulfate were injected intraperitoneally and the mice were sacrificed 20 minutes later. The heart was immediately removed and placed on ice in Krebs-Henseleit Buffer ([…], 118 mM NaCl, 4.7 mM KCL, 1.2 mM KH2PO4, 1.2 mM MgSO4, 2.5 mM CaCl2, 11.1 mM glucose, pH 7.4, which was prepared fresh with demineralized, deionized water and bubbled with 95% O2 and 5% CO2(pO2 590 mmHg, pCO2 38 mmHg)). The aorta was cannulated with PE50 tubing, the heart perfused in a retrograde manner through the aortic root with pre-filtered, oxygenated Krebs-Henseleit Buffer at a constant flow rate of 1.5 ml/minute (constant temperature of 37° C., 100 ml recirculating volume). The heart was placed in a water-jacketed chamber to maintain constant temperature and humidity. Intramedic polyethylene tubing (PE60), connected to a Statham pressure transducer, was inserted into the left ventricle (LV) to measure LV pressure. Temperature was monitored using a 27 gauge thermistor needle inserted into the LV muscle. […] Following stabilization, LV pressure and its first derivative (dP/dt), heart rate, and coronary perfusion were measured simultaneously with a multi-channel Grass 7D polygraph (Grass Instruments, Quincy, Mass.). Ventricular performance as a function of coronary perfusion was determined for all hearts by plotting peak systolic LV pressure and ±dP/dtmax values against incremental increases in coronary flow rate.
(§2) MIF has direct cardiodepressant effects in TNFR−/− mice to the same extent as in WT mice.

isolated TNFR−/− hearts = experiment: Langendorff perfusion with rMIF, TNFR−/− hearts; design: species or system mouse
Experimental: as §1, §2

[2] = tested on: spontaneously beating normal mouse hearts (endotoxin resistant C3H/HeJ); experiment: Langendorff preparation, hearts perfused with rMIF (C3H/HeJ); settings: 20 ng/ml rMIF, 1.5 ml/m
Experimental: Determination of cardiac function in response to rMIF. C57BL/6J and C3H/HeJ mice were used in the Langendorff assays. Briefly, 200 U heparin sulfate was given i.p., the mice sacrificed 20 m later, and the heart immediately removed and placed on ice in Krebs-Hanseleit Buffer ([…], 118 mM NaCl, 4.7 mM KCL, 1.2 mM KH2PO4, 1.2 mM MgSO4, 2.5 mM CaCl2, 11.1 mM glucose, pH 7.4, which was prepared fresh with demineralized, deionized water and bubbled with 95% O2 and 5% CO2 (PO2 590 mmHg, pCO2 38 mmHg)). The aorta was cannulated with PE50 tubing, the heart perfused in a retrograde manner through the aortic root with prefiltered, oxygenated Krebs-Hanseleit Buffer at a constant flow rate of 1.5 ml/m (T 37° C.) and a recirculating volume of 100 ml. The heart was placed in a water-jacketed chamber to maintain constant temperature and humidity. PE60 intratnedic polyethylene tubing was connected to a Statham pressure transducer inserted into the left ventricle (LV) to measure LV pressure. Temperature was monitored using a 27 G thertnistor needle inserted into the LV muscle. […] Following stabilization, LV pressure and its first derivative (dP/dt), heart rate, and coronary perfusion were measured simultaneously with a multichannel Grass 7D polygraph (Grass Instruments, Quincy, M A). Cardiac function for all hearts was determined by plotting peak systolic LV pressure and ±dP/dt,Ia, values against changes in coronary flow rate.
MIF induces systolic and diastolic cardiac dysfunction. […] Responses to MIF were determined in hearts from both C57BL/6J mice, and C3H/HeJ mice. C3H/HeJ mice are resistant to endotoxin (41-43), therefore controlling for the possibility that any depression observed might be due to trace endotoxin in the perfusate. Table 2 illustrates the responses of both mouse strains to retrograde aortic perfusion at 1.5 ml/m with control perfusate or perfusate containing 20 ng/ml recombinant MIF. Perfusion with MIF led to a significant decrease in LVP, +dP/dtmax, and −dP/dt max in both mouse strains. FIG. 4 illustrates the effect of MIF over a range of coronary flow rates. […]

C57BL/6 hearts = experiment: Langendorff, rhMIF added to perfusate, C57BL/6 hearts; design: species or system mouse; LVP / TPP / RT90 / Max + d / Max − d: unit not given beside the values
[3] = C57BL/6 + rhMIF in perfusate, n = 3
[4] = C57BL/6 + rhMIF, single hearts by date and mean (x), n 3
[5] = C57BL/6 + rhMIF, single hearts by date and mean (x), n 3, mean

B1: rMIF: recombinant human macrophage migration inhibitory factor added to the heart perfusate at 20 ng/ml (protein, UniProt P14174 2-115, looked up)
Macrophage migration …: PMFIVNTNVPRASVPDGFLSELTQQLAQATGKPPQYIAVHVVPDQLMAFGGSSEPCALCSLHSIGKIGGAQNRSYSKLLCGLLAERLRISPDRVYINYYDMNAANVGWNNSTFA
[1]; n = 5
  +dP/dt max: 1400 ± 158 mmHg/sec
  CPP: 84.8 ± 8.6 mmHg
  CVR: 56.5 ± 5.7 mmHg
  DR: 1.32 ± 0.06
  HR: 338 ± 10 bpm
  RT90: 75.2 ± 2.9 ms
  TPP: 71.6 ± 1.6 ms
  Time to Max +dP/dt: 49.2 ± 0.5 ms
  Time to Max −dP/dt: 52.4 ± 1.7 ms
  dP40: 1240 ± 174 mmHg/sec
  −dP/dt max: 1070 ± 146 mmHg/sec
[1]; n = 5, mean ± SE
  LVP: 55.6 ± 5.9 mmHg
Isolated TNFR−/− hearts; TNF KO + rMIF 20 ng/ml, n = 4
  CPP: 91.5 ± 6.6 mmHg
  CVR: 61.0 ± 4.4 mmHg
  DR: 1.30 ± 0.10
  HR: 335 ± 20 bpm
  RT90: 71.3 ± 4.2 ms
  TPP: 67.0 ± 2.4 ms
  Time to Max +dP/dt: 47.0 ± 2.4 ms
  Time to Max −dP/dt: 47.0 ± 2.4 ms
  dP40: 1613 ± 105 mmHg/sec
  −dP/dt max: 1413 ± 151 mmHg/sec
Isolated TNFR−/− hearts; TNF KO + rMIF 20 ng/ml, n = 4, mean ± SE
  LVP: 66.0 ± 4.7 mmHg
Isolated TNFR−/− hearts; TNFR−/− + rMIF 20 ng/ml, n = 4
  +dP/dt max: 1800 ± 100 mmHg/sec
Isolated TNFR−/− hearts; isolated hearts (Langendorf prep), both TNFR−/− and wild type mice
  onset of cardiac dysfunction (systolic and diastolic): ≤ 20 min
[2]; n = 7
  +dP/dt max: 1800 ± 106 mm Hg/see
  −dP/dt max: 1343 ± 138 mm Hg/sec
[2]; n = 7, mean peak
  LVP: 75.2 ± 5.5 mm Hg
C57BL/6 hearts; [3]
  Coronay Perfusion Pressue: 86.0 ± 23 mmHg
  Coronay Vascular Resistance: 57.3 ± 7.7 mmHg
  Heart Rate: 318 ± 2 bpm
  Left Ventricular Pressure: 52.7 ± 6.6 mmHg
  Time to 90% Relaxation: 73.3 ± 4.4 ms
  Time to Max +dP/dt: 47.0 ± 2.1 ms
  Time to Max −dP/dt: 49.0 ± 1.5 ms
  Time to Peak Pressue: 74.0 ± 3.1 ms
  dP40: 1200 ± 115 mmHg/sec
  −dP/dt max: 1233 ± 159 mmHg/sec
C57BL/6 hearts; [4]
  +dP/dt: 1650 and 1100
  DR: 1.1 and 1.158 and 1.2
  HR: 320 and 315
  LVP: 62 and 40 and 56
  Max + d: 48 and 50 and 43
  Max − d: 52 and 48 and 47
  RT90: 80 and 75 and 65
  TPP: 72 and 80 and 70
  dP40: 1400 and 1000 and 1200
  −dP/dt: 950 and 1250
C57BL/6 hearts; [5]
  DR: 1.153
  HR: 318.3333
  LVP: 52.67
  Max + d: 47
  Max − d: 49
  RT90: 73.33
  TPP: 74
  −dP/dt: 1233.333
